The labels stand for the following.
T1: DcR3 FL-Fc (R&D Systems, Inc.) (human, UniProt O95407 30-300)
T1 construct: Bought product made in insect cells; also called DcR3-Fc (R&D Systems, Inc.); DcR3 FL-Fc (IgG1)
T1 sequence: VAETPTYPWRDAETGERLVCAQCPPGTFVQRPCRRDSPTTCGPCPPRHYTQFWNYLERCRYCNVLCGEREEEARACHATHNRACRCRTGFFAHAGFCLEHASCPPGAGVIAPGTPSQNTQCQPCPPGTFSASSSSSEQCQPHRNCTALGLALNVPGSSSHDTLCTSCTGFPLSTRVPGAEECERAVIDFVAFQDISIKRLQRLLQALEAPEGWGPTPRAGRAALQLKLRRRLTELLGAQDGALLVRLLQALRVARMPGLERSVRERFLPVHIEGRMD

T2: soluble recombinant of human TL1A (His6, GS linker, Leu72-Leu251) (UniProt O95150 72-251)
T2 chain: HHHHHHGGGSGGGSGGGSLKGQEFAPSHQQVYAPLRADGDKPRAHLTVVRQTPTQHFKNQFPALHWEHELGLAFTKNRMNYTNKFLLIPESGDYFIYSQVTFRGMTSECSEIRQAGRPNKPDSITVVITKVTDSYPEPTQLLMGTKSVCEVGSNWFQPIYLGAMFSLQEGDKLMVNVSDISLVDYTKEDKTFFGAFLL

T3: soluble recombinant of human LIGHT (His10, GS linker, Asp74-Val240)
T3 chain: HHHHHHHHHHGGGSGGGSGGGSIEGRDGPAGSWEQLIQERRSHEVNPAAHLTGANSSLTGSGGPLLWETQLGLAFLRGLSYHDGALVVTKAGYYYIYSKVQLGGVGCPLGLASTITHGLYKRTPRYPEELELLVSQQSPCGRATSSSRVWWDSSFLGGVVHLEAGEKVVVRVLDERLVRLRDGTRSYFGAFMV

T4: soluble recombinant of human FasL (His6, Pro134-Leu281) (UniProt P48023 134-281)
T4 chain: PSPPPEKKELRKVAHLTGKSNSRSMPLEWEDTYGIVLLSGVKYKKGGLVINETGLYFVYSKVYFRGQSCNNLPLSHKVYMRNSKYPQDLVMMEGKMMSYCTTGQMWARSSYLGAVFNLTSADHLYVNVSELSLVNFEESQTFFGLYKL

B1: soluble recombinant of human FasL (His6, Pro134-Leu281) (ligand)
chain: T4 chain
B2: soluble recombinant of cynomolgus monkey FasL (His6, Pro133-Leu280) (ligand)
chain: T4 chain with L10Q, S20P, N70T, R108H
notes: also called His6-cynoFasL
B3: soluble recombinant of human TL1A (His6, GS linker, Leu72-Leu251) (ligand)
chain: T2 chain
notes: also called His6-TL1A; hTL1A
B4: soluble recombinant of cynomolgus monkey TL1A (His6, GS linker, Leu72-Leu251) (ligand)
chain: T2 chain with F57L, I96V
notes: also called His6-cynoTL1A
B5: soluble recombinant of mouse LIGHT (His10, GS linker, Asp72-Val239) (ligand)
chain: HHHHHHHHHHGGGSGGGSGGGSIEGRDGGKGSWEKLIQDQRSHQANPAAHLTGANASLIGIGGPLLWETRLGLAFLRGLTYHDGALVTMEPGYYYVYSKVQLSGVGCPQGLANGLPITHGLYKRTSRYPKELELLVSRRSPCGRANSSRVWWDSSFLGGVVHLEAGEEVVVRVPGNRLVRPRDGTRSYFGAFMV
B6: soluble recombinant of mouse FasL (His6, Pro132-Leu279) (ligand)
chain: HHHHHHPSTPSEKKEPRSVAHLTGNPHSRSIPLEWEDTYGTALISGVKYKKGGLVINETGLYFVYSKVYFRGQSCNNQPLNHKVYMRNSKYPEDLVLMEEKRLNYCTTGQIWAHSSYLGAVFNLTSADHLYVNISQLSLINFEESKTFFGLYKL
B7: soluble recombinant of human LIGHT (His10, GS linker, Asp74-Val240) (ligand)
chain: T3 chain
B8: soluble recombinant of cynomolgus monkey LIGHT (His10, GS linker, Asp74-Val240) (ligand)
chain: T3 chain with P29H, A30G, E44Q, V45N, S80D, V88A, T89N, S146N, A164V, K167E
B9: soluble recombinant of mouse TL1A (His6, GS linker, Ile94-Leu270) (ligand)
chain: HHHHHHGGGSGGGSGGGSITEERSEPSPQQVYSPPRGKPRAHLTIKKQTPAPHLKNQLSALHWEHDLGMAFTKNGMKYINKSLVIPESGDYFIYSQITFRGTTSVCGDISRGRRPNKPDSITMVITKVADSYPEPARLLTGSKSVCEISNNWFQSLYLGATFSLEEGDRLMVNVSDISLVDYTKEDKTFFGAFLL
B10: DcR3 FL-Fc (R&D Systems, Inc.) (Fc fusion)
chain: T1 sequence

Changes are numbered by the printed parent chain.

One experiment has as its target T1, DcR3 FL-Fc (R&D Systems, Inc.). Briefly: SPR, binder captured. The procedure:
Regarding each of the various wild-type DcR3 controls and the DcR3 variants shown in Table 9, the binding activities to DcR3 ligands (LIGHT, TL1A, FasL) were analyzed by the SPR method using BIAcore T-100 (GE Healthcare). As the buffer, HBS-EP+Buffer was used.
After 10,000 RU of anti-human antibodies were immobilized to Series S Sensor Chip CM5 using Human Antibody Capture Kit (GE Healthcare), various wild-type DcR3 controls and DcR3 variants were injected at the flow rate of 10 μL/min for 30 seconds and captured. Meanwhile, the buffer containing no protein was injected into reference flow cells. Thereafter, as an analyte, DcR3 ligands of a human, a cynomolgus monkey or a mouse diluted to 0.08 to 80 nmol/L were injected at 10 μL/min for 2 minutes to monitor the binding, and subsequently the buffer was injected for 3 minutes to monitor dissociation. Then, 3 mol/L magnesium chloride was injected at 20 μL/min for 1 minute to perform a regeneration reaction. […] As a result of measurement, except for mouse LIGHT for which a trimer could not be produced, it was confirmed that various wild-type DcR3 controls and DcR3 variants bind to each DcR3 ligand of a human, a cynomolgus monkey or a mouse.
For orientation: SPR reads the build-up and loss of mass on a sensor chip optically.
Take B1: binding was put at a Kd of 1.3 nM, the koff came to 0.0004 s⁻¹ and the kon stood at 310000 M⁻¹ s⁻¹.
On to B2, for which the Kd was found to be 1.1 nM, the koff is 0.00033 s⁻¹ and the kon came to 300000 M⁻¹ s⁻¹.
The corresponding values for B3 are 0.89 nM, 0.00035 s⁻¹ and 390000 M⁻¹ s⁻¹.
Molecule B4 gave a Kd of 0.92 nM, a koff of 0.00035 s⁻¹ and a kon of 380000 M⁻¹ s⁻¹.
Turning to B5, the binding result is “no binding (tested: 0.08 to 80 nmol/L)”.
The molecule B6 came in with a Kd of 65 nM, a koff of 0.0097 s⁻¹ and a kon of 150000 M⁻¹ s⁻¹.
The corresponding values for B7 are 1.1 nM, 0.0004 s⁻¹ and 380000 M⁻¹ s⁻¹.
In turn, B8 had a Kd of 1.2 nM, a koff of 0.00038 s⁻¹ and a kon of 310000 M⁻¹ s⁻¹.
B9 registered a Kd of 0.58 nM, an off-rate constant (koff) of 0.00049 s⁻¹ and a kon of 840000 M⁻¹ s⁻¹.

Another experiment deals with T2, soluble recombinant of human TL1A …. The experiment is described as follows: BIAcore SPR. In short, it runs like this: (§1)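 On a BIAcore T-100 or T-200 instrument (GE Healthcare), with HBS-EP+ Buffer, surface plasmon resonance measured binding of each test molecule to soluble recombinant His-tagged LIGHT, TL1A or FasL. These proteins were of human or cynomolgus monkey origin. The dissociation constant (Kd, nM) was derived from the resulting data.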
Turning to B10, the Kd worked out at 0.21 nM.

The target of a further experiment is T3, soluble recombinant of human LIGHT …. The experiment is described as follows: BIAcore SPR. An outline of the steps: as §1
On to B10, for which the Kd amounted to 0.21 nM.

The target in another experiment is T4, soluble recombinant of human FasL …. The experiment is described as follows: BIAcore SPR. In short, it runs like this:
as §1
Regarding B10, the Kd is 0.93 nM.

The Kd is a measure of binding affinity in units of concentration. As usually defined, the koff is the rate constant with which the complex falls apart. A low value points to slow dissociation. What is called kon is the second-order rate constant of association.
